The text below walks through data of article PMC7478896, “EphrinB2-EphB4 signalling provides Rho-mediated homeostatic control of lymphatic endothelial cell junction integrity” (eLife, 2020).

This assay has as its target T1, EphB4 (human (endogenous in HDLEC), UniProt P54760 16-987).
T1 sequence (looked up): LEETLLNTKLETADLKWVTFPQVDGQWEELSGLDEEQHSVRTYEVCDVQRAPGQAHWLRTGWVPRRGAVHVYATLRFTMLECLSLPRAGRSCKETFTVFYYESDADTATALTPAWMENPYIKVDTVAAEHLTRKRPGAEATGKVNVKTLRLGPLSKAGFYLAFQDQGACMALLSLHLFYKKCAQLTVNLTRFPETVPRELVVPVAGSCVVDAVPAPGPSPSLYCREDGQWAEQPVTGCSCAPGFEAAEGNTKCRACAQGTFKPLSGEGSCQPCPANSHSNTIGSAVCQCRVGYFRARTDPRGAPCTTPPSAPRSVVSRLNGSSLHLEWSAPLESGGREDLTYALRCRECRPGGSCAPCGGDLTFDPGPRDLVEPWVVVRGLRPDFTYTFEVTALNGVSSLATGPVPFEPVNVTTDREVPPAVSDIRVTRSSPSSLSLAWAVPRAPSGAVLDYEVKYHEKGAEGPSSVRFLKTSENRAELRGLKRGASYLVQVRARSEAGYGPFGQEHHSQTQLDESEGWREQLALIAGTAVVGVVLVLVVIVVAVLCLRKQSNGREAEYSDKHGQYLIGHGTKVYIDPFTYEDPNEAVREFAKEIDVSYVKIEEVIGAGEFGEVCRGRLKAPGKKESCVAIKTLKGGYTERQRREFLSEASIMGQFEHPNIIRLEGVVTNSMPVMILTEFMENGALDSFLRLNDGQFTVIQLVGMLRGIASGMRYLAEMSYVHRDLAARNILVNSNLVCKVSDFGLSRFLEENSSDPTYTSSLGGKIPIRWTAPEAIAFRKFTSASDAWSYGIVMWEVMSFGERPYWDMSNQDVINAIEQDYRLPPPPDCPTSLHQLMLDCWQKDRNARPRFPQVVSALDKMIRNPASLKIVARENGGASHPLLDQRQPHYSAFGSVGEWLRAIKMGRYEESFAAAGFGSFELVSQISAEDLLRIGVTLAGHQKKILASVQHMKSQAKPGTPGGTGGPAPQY
The experiment in a line: cell-based or functional assay.

B1: recombinant human EphrinB2-Fc (Fc fusion, UniProt P52799 28-229, looked up)
chain: IVLEPIYWNSSNSKFLPGQGLVLYPQIGDKLDIICPKVDSKTVGQYEYYKVYMVDKDQADRCTIKKENTPLLNCAKPDQDIKFTIKFQEFSPNLWGLEFQKNKDYYIISTSNGSLEGLDNQEGGVCQTRAMKILMKVGQDASSAGSTRNKDPTRRPELEAGTNGRSSTTSPFVKPNPGSSTDGNSAGHSGNNILGSEVALFA
Take B1: the “Rac1 activity (Rac1-GTP pull-down) in HDLECs after 30 min stimulation with 0.5 µg/ml clustered EphrinB2-Fc” value was 2 fold.
